Consider two molecules from patent publication US20230184787A1 (NORDIC BIOSCIENCE A S, published 2023).

Sequences and labels used below:
T1: elongated peptide VKLGHPDTLNQ (Homo sapiens)
T1 construct: also called N-extended elongated version
T1 peptide: VKLGHPDTLNQ

T2: truncated peptide LGHPDTLNQ (Homo sapiens)
T2 construct: also called N-truncated shortened version
T2 peptide: LGHPDTLNQ

T3: non-sense peptide YRDDLKKLLET (Homo sapiens)
T3 construct: also called NBH-225
T3 peptide: YRDDLKKLLET

T4: full-length human calprotectin (heterodimer of S100A9 and S100A8) (Homo sapiens, UniProt P06702 1-114; P05109 1-93)
T4 construct: also called intact full-length human calprotectin; purified calprotectin
T4 sequence (looked up) 1: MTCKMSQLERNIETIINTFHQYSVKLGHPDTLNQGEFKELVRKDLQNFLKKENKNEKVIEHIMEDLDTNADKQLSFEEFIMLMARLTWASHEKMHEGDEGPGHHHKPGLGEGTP
T4 sequence (looked up) 2: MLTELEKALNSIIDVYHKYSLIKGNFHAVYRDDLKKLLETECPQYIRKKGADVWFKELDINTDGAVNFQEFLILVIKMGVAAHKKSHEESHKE

T5: human neutrophil elastase (human, UniProt P08246 30-247, limits assumed)
T5 construct: also called HNE
T5 sequence (looked up): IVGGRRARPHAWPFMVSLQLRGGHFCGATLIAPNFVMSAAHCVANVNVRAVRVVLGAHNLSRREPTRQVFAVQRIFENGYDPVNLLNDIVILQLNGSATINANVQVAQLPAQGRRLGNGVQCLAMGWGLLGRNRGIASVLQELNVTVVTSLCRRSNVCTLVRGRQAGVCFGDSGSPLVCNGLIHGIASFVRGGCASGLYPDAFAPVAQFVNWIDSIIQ

B1: selection peptide KLGHPDTLNQ (peptide)
peptide: KLGHPDTLNQ
notes: also called calibrator peptide
B2: CPa9-HNE antibody (antibody, mouse IgG1, kappa, V domains shown)
VH: QVQLQQSGPELVKPGASVKMSCKASGYTFTDHVINWVRQRTGQGLEWIGEIYPGSGSTYYNEKFKGKATLTADKSSNTAYMQLSSLTSEDSAVYFCAWFAYWGQGTLVTVSA
VL: DIVMTQSPSSLSVSAGEKVTMSCKSSQSLLNSGNQKNYLAWYQQKPGQPPKLLIYGASTRESGVPDRFTGSGSGTDFTLTISSVQAEDLAVYYCLNDHSYPYTFGGGTKLEIKR
notes: also called monoclonal antibody targeting CPa9-HNE

The assay “CPa9-HNE antibody” has as its target B2. Description: competitive ELISA: standard (calibrator) peptide in solution competes with …-K-Biotin on streptavidin plates for the CPa9-HNE antibody; mean of the standard curves.
In assay [1] the target is B1. Nature of the assay: competitive ELISA (CPa9-HNE assay), peptide specificity test, FIG. 2B. As to the method: (§1) No. 11940279, Hvidovre, Denmark) were coated with a biotinylated antigen ([…]-K-Biotin (SEQ ID NO: 27)) by incubation with the biotinylated antigen for 30 minutes at room temperature. Unbound biotinylated coater antigen was discarded, and the wells were washed with washing buffer (25 mM TRIZMA, 50 mM NaCl, 0.036% Bronidox L5, 0.1% Tween 20) using a standardized ELISA plate washing machine (BioTek® Instruments, Microplate washer, ELx405 Select CW, Winooski, USA). Samples were diluted in incubation buffer containing 1% bovine serum albumin (Sigma Aldrich, cat. No. a-7906, 98 purity) to maintain protein stability and for blocking. Samples and controls were added to the wells and incubated with the primary monoclonal antibody against the HNE-generated neo-epitope (CPa9-HNE), at 20° C. for 1 hour and agitated at 300 rpm. Unbound primary antibody and sample were discarded, and the wells were washed with washing buffer. Subsequently, HRP conjugated AffiniPure Rabbit anti-mouse IgG secondary antibodies (Jackson cat. No 315-035-045) was added to the wells and incubated for 1 hour at 20° C. Unbound secondary antibody was discarded by washing the wells in washing buffer. Chemiluminescence substrate (Roche Diagnostic's cat. No. 11582950001) was added to the well (100 μl/well), and the plates were incubated for 3 minutes at room temperature before reading the plates. Finally, an ELISA reader (VersaMAX; Molecular Devices, Wokingham Berkshire, UK) was used to quantify the relative light units (RLU) emitted from the plates […]. A standard curve was plotted using a 4-parametric mathematical fit model.
(§2) A monoclonal antibody (also referred to herein as the CPa9-HNE antibody) targeting CPa9-HNE (the HNE-generated N-terminus neo-epitope of NBH-222) was developed and used in an ELISA protocol as described above (also referred to hereinafter as the CPa9-HNE assay), and the specificity of this antibody when used in this immunoassay was tested against the selection peptide and the elongated peptide, truncated peptide and non-sense peptide (having the sequences set out in Table 1).
(In an ELISA, binding on a coated surface is turned into a signal by an enzyme label.)

For assay [2], the target named is T1, elongated peptide VKLGHPDTLNQ
The assay is described as above. As to the method: as §1, §2

Assay [3] concerns the target T2, truncated peptide LGHPDTLNQ
Described as above. As to the method:
as §1, §2

In assay [4] the target is T3, non-sense peptide YRDDLKKLLET
The assay is described as above. As to the method:
as §1, §2

The target in assay [5] is T4, full-length human calprotectin …. Description: competitive ELISA (CPa9-HNE assay) on in vitro cleavage samples and controls, FIG. 2C. As to the method: (§3) Samples were diluted in incubation buffer containing 1% bovine serum albumin (Sigma Aldrich, cat. No. a-7906, 98 purity) to maintain protein stability and for blocking. Samples and controls were added to the wells and incubated with the primary monoclonal antibody against the HNE-generated neo-epitope (CPa9-HNE), at 20° C. for 1 hour and agitated at 300 rpm. Unbound primary antibody and sample were discarded, and the wells were washed with washing buffer. Subsequently, HRP conjugated AffiniPure Rabbit anti-mouse IgG secondary antibodies (Jackson cat. No 315-035-045) was added to the wells and incubated for 1 hour at 20° C. Unbound secondary antibody was discarded by washing the wells in washing buffer. Chemiluminescence substrate (Roche Diagnostic's cat. No. 11582950001) was added to the well (100 μl/well), and the plates were incubated for 3 minutes at room temperature before reading the plates. Finally, an ELISA reader (VersaMAX; Molecular Devices, Wokingham Berkshire, UK) was used to quantify the relative light units (RLU) emitted from the plates […]. A standard curve was plotted using a 4-parametric mathematical fit model. […]

Assay [6] deals with T5, human neutrophil elastase. The description is as above. On the procedure:
as §3

In general, IC50 refers to the concentration that gives 50% inhibition.

With B1, the IC50 in the assay with CPa9-HNE antibody was found to be 0.0783 µg/mL.

In the case of B2, the binding result in assay [1] is “binds”; in assay [2] it was “no binding”; in assay [3] it was “no binding”; in assay [4], “no binding”; in assay [5], “no binding”; in assay [6], “no binding”.
